Assay results: patent publication US20250011397A1 (HOSPITAL FOR SICK CHILDREN, published 2025)
Values joined by “and” are separate entries in the source; they are usually repeats but may differ in a detail not shown here. Equal values may be shown once. Read-outs that look alike come from different tables or passages of the source.

Key:
Test in all cases: cell-based or functional assay
[1] = target: T1, SARS-CoV-2 Spike on HIV-based pseudotyped virus (Spike plasmid BEI NR52310) (SARS-CoV-2, UniProt P0DTC2 14-1273)
[2] = target: Spike of authentic SARS-CoV-2/SB2-P4-PB virus (SARS-CoV-2, UniProt P0DTC2 14-1273)
[3] = target: T1, SARS-CoV-2 Spike on HIV-based …; remark: listed apart in the source
[4] = target: T1, SARS-CoV-2 Spike on HIV-based …; remark: listed apart in the source

| Binder | IC50 SARS-CoV2 PsV (µg/mL), MB [1] [µg/mL] | IC50 SARS-CoV2/SB2-P4-PB (µg/mL), MB [2] [µg/mL] | Median IC50 (PsV neutralization) [3] | IC50 SARS-CoV2 PsV (µg/mL), IgG [1] [µg/mL] | Median IC50 (PsV neutralization) [4] | IC50 SARS-CoV2/SB2-P4-PB (µg/mL), IgG [2] [µg/mL] |
| --- | --- | --- | --- | --- | --- | --- |
| MB 324 (other) heavy: QVQLVQSGAEVKKPGASVKVSCKASGGTFNNYGISWVRQAPGQGLEWMGWMNPNSGNTGYAQKFQGRVTMTRDTSTSTVYMELSSLRSEDTAVYYCARVGDYGDYIVSPFDLWGRGTLVTVSSASTKGPSVFPLAPSSKSTSGGTAALGCLVKDYFPEPVTVSWNSGALTSGVHTFPAVLQSSGLYSLSSVVTVPSSSLGTQTYICNVNHKPSNTKVDKKVEPKSC light: not shown | 0.0009 | 0.024 | 0.0009 µg/mL and 0.39 pM |  |  |  |
| mAb 120 (antibody, V domains shown, also called IgG 120) VH: QVQLVQSGAEVKKPGASVKVSCKASGYTFTSYDINWVRQAPGQGLEWMGMIDPSGGSTSYAQKFQGRVTMTRDTSTSTVYMELSSLRSEDTAVYYCAKDFGGGTRYDYWYFDLWGRGTLVTVSS VL: EIVMTQSPATLSVSPGERATLSCRASQSVSSRYLAWYQQKPGQAPRLLIYGASTRATGIPARFSGSGSGTEFTLTISSLQSEDFAVYYCQQYYTTPRTFGQGTRLEIKR |  |  | > 50 µg/mL and > 333 nM | > 50 |  |  |
| MB 82 (other) heavy: QVQLVQSGAEVKKPGASVKVSCKASGGSFSTSAFYWVRQAPGQGLEWMGWINPYTGGTNYAQKFQGRVTMTRDTSTSTVYMELSSLRSEDTAVYYCARSRALYGSGSYFDYWGQGTLVTVSSASTKGPSVFPLAPSSKSTSGGTAALGCLVKDYFPEPVTVSWNSGALTSGVHTFPAVLQSSGLYSLSSVVTVPSSSLGTQTYICNVNHKPSNTKVDKKVEPKSC light: not shown | 0.0022 | 0.21 | 0.0022 µg/mL and 0.95 pM |  |  |  |
| MB 46 (other) heavy: EVQLLESGGGLVQPGRSLRLSCAASGFTFSSYAMSWVRQAPGKGLEWVSTIYSGGSTYYADSVKGRFTISRDNSKNTLYLQMNSLRAEDTAVYYCARGDSRDAFDIWGQGTMVTVSSASTKGPSVFPLAPSSKSTSGGTAALGCLVKDYFPEPVTVSWNSGALTSGVHTFPAVLQSSGLYSLSSVVTVPSSSLGTQTYICNVNHKPSNTKVDKKVEPKSC light: not shown | 0.0024 | 0.027 | 0.0024 µg/mL and 1 pM |  |  |  |
| mAb 368 (antibody, V domains shown) VH: QVQLVQSGAEVKKPGSSVKVSCKASGYTFTSYDINWVRQAPGQGLEWMGAIMPMFGTANYAQKFQGRVTITADESTSTAYMELSSLRSEDTAVYYCARGSSGYYYGWGQGTLVTVSS VL: not shown |  |  | > 50 µg/mL and > 333 nM | > 50 |  |  |
| mAb 254 (antibody, V domains shown, also called IgG 254) VH: EVQLLESGGGLVQPGGSLRLSCAASGFTFSSSAMHWVRQAPGKGLEWVSAIGTGGDTYYADSVKGRFTISRDNSKNTLYLQMNSLRAEDTAVYYCAREGDGYNFYFDYWGQGTLVTVSS VL: DIQMTQSPSSLSASVGDRVTITCRASQGISSYLAWYQQKPGKAPKLLIYDASSLQIGVPSRFSGSGSGTDFTLTISSLQPEDFATYYCLQSYSTPPWTFGQGTKVEIKR |  |  | > 50 µg/mL and > 333 nM | > 50 |  |  |
| 4A8 IgG (antibody, V domains shown, also called IgG 4A8) VH: EVQLVESGAEVKKPGASVKVSCKVSGYTLTELSMHWVRQAPGKGLEWMGGFDPEDGETMYAQKFQGRVTMTEDTSTDTAYMELSSLRSEDTAVYYCATSTAVAGTPDLFDYYYGMDVWGQGTTVTVSS VL: EIVMTQSPLSSPVTLGQPASISCRSSQSLVHSDGNTYLSWLQQRPGQPPRLLIYKISNRFSGVPDRFSGSGAGTDFTLKISRVEAEDVGVYYCTQATQFPYTFGQGTKVDIK |  |  |  |  | > 100 µg/mL and > 0.66 µM |  |
| mAb 64 (antibody, V domains shown, also called IgG 64) VH: EVQLLESGGGLVQPGGSLRLSCAASGFPFSQHGMHWVRQAPGKGLEWVSAIDRSGSYIYYADSVKGRFTISRDNSKNTLYLQMNSLRAEDTAVYYCARDTYGGKVTYFDYWGQGTLVTVSS VL: DIQMTQSPSSLSASVGDRVTITCRASQGISSHLAWYQQKPGKAPKLLIYDASNLETGVPSRFSGSGSGTDFTLTISSLQPEDFATYYCQQTYSTPWTFGQGTKVEIKR |  |  | > 50 µg/mL and > 333 nM | > 50 |  |  |
| mAb 82 (antibody, V domains shown, also called IgG 82) VH: QVQLVQSGAEVKKPGASVKVSCKASGGSFSTSAFYWVRQAPGQGLEWMGWINPYTGGTNYAQKFQGRVTMTRDTSTSTVYMELSSLRSEDTAVYYCARSRALYGSGSYFDYWGQGTLVTVSS VL: DIQMTQSPSSLSASVGDRVTITCRASQVISNYLAWYQQKPGKAPKLLIYDASNLETGVPSRFSGSGSGTDFTLTISSLQPEDFATYYCQQSFSPPPTFGQGTRLEIKR |  |  | 1.6 µg/mL and 11 nM | 1.6 |  |  |
| mAb 192 (antibody, V domains shown) VH: QVQLVQSGAEVKKPGSSVKVSCKASGGTFSSYAISWVRQAPGQGLEWMGWINPNSGGANYAQKFQGRVTITADESTSTAYMELSSLRSEDTAVYYCSTYYYDSSGYSTDYWGQGTLVTVSS VL: DIVMTQSPLSLPVTPGEPASISCRSSQSLLHSNGYNYLDWYLQKPGQSPQLLIYAASSLQSGVPDRFSGSGSGTDFTLKISRVEAEDVGVYYCMQALQTPYTFGQGTKLEIKR |  |  | > 50 µg/mL and > 333 nM | > 50 |  |  |
| mAb 180 (antibody, V domains shown) VH: QVQLVQSGAEVKKPGSSVKVSCKASGYTFTSYAMHWVRQAPGQGLEWMGRISPRSGGTKYAQRFQGRVTITADESTSTAYMELSSLRSEDTAVYYCAREAVAGTHPQAGDFDLWGRGTLVTVSS VL: DIVMTQSPLSLPVTPGEPASISCRSSQSLLHSNGYNYLDWYLQKPGQSPQLLIYAASSLQSGVPDRFSGSGSGTDFTLKISRVEAEDVGVYYCQQYYSSPYTFGQGTKLEIKR |  |  | > 50 µg/mL and > 333 nM | > 50 |  |  |
| mAb 158 (antibody, V domains shown, also called IgG 158) VH: QVQLVQSGAEVKKPGASVKVSCKASGYTFTGYYMHWVRQAPGQGLEWMGWINPLNGGTNFAPKFQGRVTMTRDTSTSTVYMELSSLRSEDTAVYYCARDPGGSYSNDAFDIWGQGTLVTVSS VL: DIQMTQSPSSLSASVGDRVTITCRASQSISRYLNWYQQKPGKAPKLLIYDASNLESGVPSRFSGSGSGTDFTLTISSLQPEDFATYYCQQANSFPLTFGGGTKVDIKR |  |  | > 50 µg/mL and > 333 nM | > 50 |  |  |
| mAb 46 (antibody, V domains shown, also called IgG 46; antibody 46) VH: EVQLLESGGGLVQPGRSLRLSCAASGFTFSSYAMSWVRQAPGKGLEWVSTIYSGGSTYYADSVKGRFTISRDNSKNTLYLQMNSLRAEDTAVYYCARGDSRDAFDIWGQGTMVTVSS VL: DIQMTQSPSSLSASVGDRVTITCRASQSISSWLAWYQQKPGKAPKLLIYDASNLETGVPSRFSGSGSGTDFTLTISSLQPEDFATYYCQQSYSTPFTFGPGTKVDIKR |  |  | 2.1 µg/mL and 14 nM | 2.1 |  | 19 |
| mAb 52 (antibody, V domains shown, also called IgG 52; antibody 52) VH: QVQLVQSGAEVKKPGSSVKVSCKASGYTFTSYGISWVRQAPGQGLEWMGGIIPMFGTTNYAQKFQGRVTITADKSTSTAYMELSSLRSEDTAVYYCARDRGDTIDYWGQGTLVTVSS VL: DIQMTQSPSSLSASVGDRVTITCRASQGISNNLNWYQQKPGKAPKLLIYAASSLESGVPSRFSGSGSGTDFTLTISSLQPEDFATYYCQQGNGFPLTFGPGTKVDIKR |  |  | 0.61 µg/mL and 4.1 nM | 0.55 |  | 6.2 |
| mAb 324 (antibody, V domains shown, also called IgG 324) VH: QVQLVQSGAEVKKPGASVKVSCKASGGTFNNYGISWVRQAPGQGLEWMGWMNPNSGNTGYAQKFQGRVTMTRDTSTSTVYMELSSLRSEDTAVYYCARVGDYGDYIVSPFDLWGRGTLVTVSS VL: DIQMTQSPSSLSASVGDRVTITCRASQSITTYLNWYQQKPGKAPKLLIYDASNLETGVPSRFSGSGSGTDFTLTISSLQPEDFATYYCQQSYSTPPTFGQGTKVEIKR |  |  | 0.78 µg/mL and 5.2 nM | 0.78 |  | 21 |
| mAb 236 (antibody, V domains shown, also called IgG 236) VH: QVQLVQSGAEVKKPGASVKVSCKASGGTFTSYGINWVRQAPGQGLEWMGWMNPNSGNTGYAQKFQGRVTMTRDTSTSTVYMELSSLRSEDTAVYYCASRGIQLLPRGMDVWGQGTTVTVSS VL: not shown |  |  | 0.057 µg/mL and 0.38 nM | 0.057 |  | 5.5 |
